Measurements reported in patent publication US20250282834A1 (University of California, published 2025).
Non-standard residues stand in square brackets, D forms with d. No end group written: not given here. *: point of attachment. Biotin = O=C1N[C@H]2[C@H](CS[C@H]2CCCCC(=O)*)N1; Orn = NCCC[C@H](N)C(=O)O; βAla = NCCC(=O)O

Legend:
[1] = target: T1, full-length Flag-CHD4 (chromodomain helicase DNA-binding protein 4) (UniProt Q14839 1-1912); experiment: BLI, biotinylated peptide on streptavidin tips, full-length Flag-CHD4 at 0-50 nM in solution
T1 construct: FLAG-tagged, made in recombinant baculovirus infected Sf9 cells and purified on Flag-agarose; also called purified CHD4; full-length CHD4
T1 sequence (Q14839 whole entry): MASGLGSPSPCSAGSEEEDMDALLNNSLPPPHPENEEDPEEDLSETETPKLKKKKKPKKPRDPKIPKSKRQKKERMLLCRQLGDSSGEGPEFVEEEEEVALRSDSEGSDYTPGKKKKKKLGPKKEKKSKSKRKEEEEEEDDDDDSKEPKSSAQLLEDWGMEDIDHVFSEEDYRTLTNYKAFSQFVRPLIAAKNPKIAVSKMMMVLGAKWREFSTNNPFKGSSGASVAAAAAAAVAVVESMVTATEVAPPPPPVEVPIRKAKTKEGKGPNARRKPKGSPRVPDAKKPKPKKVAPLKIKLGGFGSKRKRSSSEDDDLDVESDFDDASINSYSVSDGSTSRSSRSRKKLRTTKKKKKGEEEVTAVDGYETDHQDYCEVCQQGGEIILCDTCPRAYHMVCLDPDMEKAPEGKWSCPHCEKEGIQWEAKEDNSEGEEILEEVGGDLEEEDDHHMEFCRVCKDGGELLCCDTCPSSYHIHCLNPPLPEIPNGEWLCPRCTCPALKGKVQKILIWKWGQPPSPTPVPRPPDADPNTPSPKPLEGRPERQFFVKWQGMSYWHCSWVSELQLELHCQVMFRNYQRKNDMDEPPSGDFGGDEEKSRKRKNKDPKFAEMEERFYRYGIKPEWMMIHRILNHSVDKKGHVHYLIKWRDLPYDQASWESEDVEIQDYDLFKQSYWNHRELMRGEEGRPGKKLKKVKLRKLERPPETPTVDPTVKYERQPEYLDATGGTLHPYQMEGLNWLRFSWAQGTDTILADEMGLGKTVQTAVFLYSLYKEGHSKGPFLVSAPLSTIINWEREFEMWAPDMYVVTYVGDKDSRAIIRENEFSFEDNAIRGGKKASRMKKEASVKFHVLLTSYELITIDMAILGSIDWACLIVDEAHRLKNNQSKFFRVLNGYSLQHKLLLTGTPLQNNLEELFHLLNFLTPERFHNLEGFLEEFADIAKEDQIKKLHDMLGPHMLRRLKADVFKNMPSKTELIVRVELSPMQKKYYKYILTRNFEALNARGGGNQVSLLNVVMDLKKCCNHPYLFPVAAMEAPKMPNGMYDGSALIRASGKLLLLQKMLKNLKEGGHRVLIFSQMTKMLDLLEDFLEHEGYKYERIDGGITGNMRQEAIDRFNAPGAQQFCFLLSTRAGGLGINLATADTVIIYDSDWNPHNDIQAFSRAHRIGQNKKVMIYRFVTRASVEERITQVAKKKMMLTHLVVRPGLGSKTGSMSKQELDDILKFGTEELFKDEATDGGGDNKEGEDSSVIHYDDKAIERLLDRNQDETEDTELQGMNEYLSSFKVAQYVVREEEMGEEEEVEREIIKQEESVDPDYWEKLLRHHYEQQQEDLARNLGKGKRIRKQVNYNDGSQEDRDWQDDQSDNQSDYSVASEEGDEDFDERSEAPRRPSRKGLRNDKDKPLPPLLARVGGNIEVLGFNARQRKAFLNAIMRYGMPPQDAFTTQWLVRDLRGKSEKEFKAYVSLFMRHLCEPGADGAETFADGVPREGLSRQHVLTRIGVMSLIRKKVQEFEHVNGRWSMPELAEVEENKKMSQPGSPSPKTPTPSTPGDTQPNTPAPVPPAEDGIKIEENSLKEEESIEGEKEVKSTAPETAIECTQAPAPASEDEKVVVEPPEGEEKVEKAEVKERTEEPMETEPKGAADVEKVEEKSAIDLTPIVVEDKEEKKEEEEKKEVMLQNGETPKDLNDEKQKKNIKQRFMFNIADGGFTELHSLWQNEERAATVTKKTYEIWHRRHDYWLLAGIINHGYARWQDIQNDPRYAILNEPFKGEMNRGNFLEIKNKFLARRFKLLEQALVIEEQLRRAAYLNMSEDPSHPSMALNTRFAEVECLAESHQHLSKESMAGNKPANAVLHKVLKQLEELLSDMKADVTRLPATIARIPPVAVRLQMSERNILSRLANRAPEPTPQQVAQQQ

[2] = target: T2, CHD4 (endogenous, in PEL cells BC3 / BCBL-1) (UniProt Q14839 1-1912); experiment: streptavidin pull-down from BC3 cells incubated with 10 µM biotinylated peptide, anti-CHD4 immunoblot
T2 construct: Cellular protein in treated cells and their lysates
T2 sequence (Q14839 whole entry): as above

[3] = target: T1, full-length Flag-CHD4 (chromodomain …); experiment: peptide pull-down: 100 nM purified Flag-CHD4 with 1 µg N-biotinylated peptide, anti-Flag immunoblot
[4] = target: T1, full-length Flag-CHD4 (chromodomain …); experiment: ELISA, plate coated with 1 µM biotinylated VGN73, Flag-CHD4 protein titrated, OD 450 nm
685-1245 = target: T3, 685-1245; experiment: ELISA, plate coated with 1 µM biotinylated VGN73, Flag-CHD4 deletion protein titrated, OD 450 nm
T3 construct: Member of the group m7; The map draws it with the ATPase and C-terminal helicase boxes only, without PHD; also called Flag-CHD4 deletion protein 685-1245

1250-1912 = target: T4, 1250-1912; experiment: as above
T4 construct: Member of the group m7; The map draws it with the two DUF domains and CHDCT2, without PHD; also called Flag-CHD4 deletion protein 1250-1912

1531-1912 = target: T5, 1531-1912; experiment: as above
T5 construct: Member of the group m7; The map draws it with CHDCT2 only, without PHD; also called Flag-CHD4 deletion protein 1531-1912

B1: modified TAT peptide (peptide)
peptide: RKKRRXRRRA
modifications: d-Arg at position 1; ornithine (ORN) at position 6; beta-alanine at position 10; N-terminal biotin in BLI
notes: also called TAT alone; biotinylated TAT peptide
binding result [1]: no binding (tested: 50 nM) | binding result [2]: no binding (tested: 10 µM)

B2: #2 (peptide)
peptide: Biotin-EEVEEQEQQGVEQQEQETVEE
notes: also called N-Biotin LANA peptide 2; KSHV LANA 876-896 as printed
binding result [3]: no binding (tested: 1 µg peptide with 100 nM CHD4)

B3: #4 (peptide)
peptide: Biotin-EDEMEVDYPVVSTHEQIASSPPG
notes: also called N-Biotin LANA peptide 4; KSHV LANA 906-928
binding result [3]: no binding (tested: 1 µg peptide with 100 nM CHD4)

B4: #8 (peptide)
peptide: Biotin-QPPVPYRQIDDCPAKARPQHIFYR
notes: also called N-Biotin LANA peptide 8; KSHV LANA 977-1000
binding result [3]: no binding (tested: 1 µg peptide with 100 nM CHD4)

B5: #1 (peptide)
peptide: Biotin-EQELEEVEEQEEQELEEVEEQEQ
notes: also called N-Biotin LANA peptide 1; KSHV LANA 872-894 as printed
binding result [3]: no binding (tested: 1 µg peptide with 100 nM CHD4)

B6: #3 (peptide)
peptide: Biotin-ETVEEPIILHGSSSEDEMEVDYP
notes: also called N-Biotin LANA peptide 3; KSHV LANA 892-914
binding result [3]: no binding (tested: 1 µg peptide with 100 nM CHD4)

[dR]KKRR[Orn]RRR[βAla]AKHAVISAGNDPYGLKK (also: N-terminal biotin only in BLI form) [VGN73 mutant peptide (TAT-VGN73 mutant fusion peptide)]
binding result [1]: no binding (tested: 50 nM) | binding result [2]: no binding (tested: 10 µM)

B7: VGN73 (TAT-VGN73 fusion peptide) (peptide)
peptide: [dR]KKRR[Orn]RRR[βAla]WKHAVIFWGNDPYGLKK
modifications: also: N-terminal biotin only in ELISA, BLI and pull-down forms
notes: Used without biotin in cell treatment assays; also called LANA peptide; cell-penetrating LANA peptide
EC50 (read off the curve) [4]: ~0.01 µM | binding result (685-1245): no binding (tested: 100 nM) | binding result (1250-1912): no binding (tested: 100 nM) | binding result (1531-1912): no binding (tested: 100 nM)

B8: #5 (peptide)
peptide: Biotin-IASSPPGDNTPDDDPQPGPSREYR
notes: also called N-Biotin LANA peptide 5; KSHV LANA 922-945
binding result [3]: no binding (tested: 1 µg peptide with 100 nM CHD4)
